In US8889619B2 (Beijing Dongfang Biotech Co., Ltd., priority 2010, dated 2014):

System: KK-Ay diabetic model mice
Assay: Long-term administration experiment, KK-Ay diabetic model mice
Type: in vivo, mouse
Conditions: fast blood glucose decrease vs blank control relative to fusion protein of example 2; 1 mg/Kg twice per week, after 2 weeks, fasted 6 h
Description: The drug is given twice per week, and the mice are fasted for 6 h each Wednesday and tested for fast blood glucose, meanwhile their food intake and weight variation are recorded. […] Specifically, long term administration is conducted according to the following protocol: the KK-Ay diabetic model mice are randomized into blank control group (injected only with PBS) and experimental group (injected with 1 mg/Kg of the fusion protein in Table 3). The drug is given twice per week; after 2 weeks, the mice are fasted for 6 h and tested for fasting blood glucose, and the blood glucose decrease of one experimental group is calculated by subtracting the fasting blood glucose of the experimental group from that of the blank control group.

| Molecule | Relative bioactivity |
| --- | --- |
| SEQ ID NO: 22: fusion protein: peptide hormone SEQ ID NO: 1 (Exendin-4), linker SEQ ID NO: 3, IgG4-Fc | 75% |
| SEQ ID NO: 13: fusion protein: peptide hormone SEQ ID NO: 14 (GLP-1A8G), linker SEQ ID NO: 3, IgG2-Fc (protein, The sequence is synthesized) AAEGTFTGDVSSYLEGQAAKEFIAWLVKGRGGGGGAGGGGVECPPCPAPPVAGPSVFLFPPKPKDTLMISRTPEVTCVVVDVSHEDPEVQFNWYVDGVEVHNAKTKPREEQFNSTFRVVSVLTVVHQDWLNGKEYKCKVSNKGLPAPIEKTISKTKGQPREPQVYTLPPSREEMTKNQVSLTCLVKGFYPSDIAVEWESNGQPENNYKTTPPMLDSDGSFFLYSKLTVDKSRWQQGNVFSCSVMHEALHNHYTQKSLSLSPGK | 95% |
| SEQ ID NO: 5: fusion protein: peptide hormone SEQ ID NO: 6 (differs from SEQ ID NO:1 in 2 sites), linker SEQ ID NO: 3, IgG2-Fc (protein, The sequence is synthesized) HTEGTFTSDASKQMEEEAVRLFIEWLKDGGPSSGAPPPSGGGGAGGGGVECPPCPAPPVAGPSVFLFPPKPKDTLMISRTPEVTCVVVDVSHEDPEVQFNWYVDGVEVHNAKTKPREEQFNSTFRVVSVLTVVHQDWLNGKEYKCKVSNKGLPAPIEKTISKTKGQPREPQVYTLPPSREEMTKNQVSLTCLVKGFYPSDIAVEWESNGQPENNYKTTPPMLDSDGSFFLYSKLTVDKSRWQQGNVFSCSVMHEALHNHYTQKSLSLSPGK | 99% |
| SEQ ID NO: 7: fusion protein: peptide hormone SEQ ID NO: 8 (differs from SEQ ID NO:1 in 3 sites), linker SEQ ID NO: 3, IgG2-Fc (protein, The sequence is synthesized) HTEGTFTSDASLQMEEEAVRLFIEWLKDGGPSSGAPPPSGGGGAGGGGVECPPCPAPPVAGPSVFLFPPKPKDTLMISRTPEVTCVVVDVSHEDPEVQFNWYVDGVEVHNAKTKPREEQFNSTFRVVSVLTVVHQDWLNGKEYKCKVSNKGLPAPIEKTISKTKGQPREPQVYTLPPSREEMTKNQVSLTCLVKGFYPSDIAVEWESNGQPENNYKTTPPMLDSDGSFFLYSKLTVDKSRWQQGNVFSCSVMHEALHNHYTQKSLSLSPGK | 98% |
| SEQ ID NO: 9: fusion protein: peptide hormone SEQ ID NO: 10 (differs from SEQ ID NO:1 in 4 sites), linker SEQ ID NO: 3, IgG2-Fc (protein, The sequence is synthesized) HAEGTFTSDASLTMEEEAVRLFIEWLKDGGPSSGAPPPSGGGGAGGGGVECPPCPAPPVAGPSVFLFPPKPKDTLMISRTPEVTCVVVDVSHEDPEVQFNWYVDGVEVHNAKTKPREEQFNSTFRVVSVLTVVHQDWLNGKEYKCKVSNKGLPAPIEKTISKTKGQPREPQVYTLPPSREEMTKNQVSLTCLVKGFYPSDIAVEWESNGQPENNYKTTPPMLDSDGSFFLYSKLTVDKSRWQQGNVFSCSVMHEALHNHYTQKSLSLSPGK | 97% |
| SEQ ID NO: 11: fusion protein: peptide hormone SEQ ID NO: 12 (differs from SEQ ID NO:1 in 6 sites), linker SEQ ID NO: 3, IgG2-Fc (protein, The sequence is synthesized) HAEGTFTSDASLTYEEEACRLFIEWLKDGGPSSGAPPPSGGGGAGGGGVECPPCPAPPVAGPSVFLFPPKPKDTLMISRTPEVTCVVVDVSHEDPEVQFNWYVDGVEVHNAKTKPREEQFNSTFRVVSVLTVVHQDWLNGKEYKCKVSNKGLPAPIEKTISKTKGQPREPQVYTLPPSREEMTKNQVSLTCLVKGFYPSDIAVEWESNGQPENNYKTTPPMLDSDGSFFLYSKLTVDKSRWQQGNVFSCSVMHEALHNHYTQKSLSLSPGK | 96% |
| SEQ ID NO: 15: fusion protein: peptide hormone SEQ ID NO: 16 (differs from SEQ ID NO:2 in 3 sites), linker SEQ ID NO: 3, IgG2-Fc (protein, The sequence is synthesized) HTEGTFTSDASSYLEGQACKEFIAWLVKGRGGGGAGGGGVECPPCPAPPVAGPSVFLFPPKPKDTLMISRTPEVTCVVVDVSHEDPEVQFNWYVDGVEVHNAKTKPREEQFNSTFRVVSVLTVVHQDWLNGKEYKCKVSNKGLPAPIEKTISKTKGQPREPQVYTLPPSREEMTKNQVSLTCLVKGFYPSDIAVEWESNGQPENNYKTTPPMLDSDGSFFLYSKLTVDKSRWQQGNVFSCSVMHEALHNHYTQKSLSLSPGK | 94% |
| SEQ ID NO: 21: fusion protein: peptide hormone SEQ ID NO: 2 (GLP-1 (7-36) NH2), linker SEQ ID NO: 3, IgG2-Fc (protein, The sequence is synthesized) HAEGTFTSDVSSYLEGQAAKEFIAWLVKGRGGGGAGGGGVECPPCPAPPVAGPSVFLFPPKPKDTLMISRTPEVTCVVVDVSHEDPEVQFNWYVDGVEVHNAKTKPREEQFNSTFRVVSVLTVVHQDWLNGKEYKCKVSNKGLPAPIEKTISKTKGQPREPQVYTLPPSREEMTKNQVSLTCLVKGFYPSDIAVEWESNGQPENNYKTTPPMLDSDGSFFLYSKLTVDKSRWQQGNVFSCSVMHEALHNHYTQKSLSLSPGK | 91% |
| SEQ ID NO: 17: fusion protein: peptide hormone SEQ ID NO: 18 (differs from SEQ ID NO:2 in 3 sites), linker SEQ ID NO: 3, IgG2-Fc (protein, The sequence is synthesized) HTEGTFTSDLSSYLEGQASKEFIAWLVKGRGGGGAGGGGVECPPCPAPPVAGPSVFLFPPKPKDTLMISRTPEVTCVVVDVSHEDPEVQFNWYVDGVEVHNAKTKPREEQFNSTFRVVSVLTVVHQDWLNGKEYKCKVSNKGLPAPIEKTISKTKGQPREPQVYTLPPSREEMTKNQVSLTCLVKGFYPSDIAVEWESNGQPENNYKTTPPMLDSDGSFFLYSKLTVDKSRWQQGNVFSCSVMHEALHNHYTQKSLSLSPGK | 93% |
| SEQ ID NO: 19: fusion protein: peptide hormone SEQ ID NO: 20 (differs from SEQ ID NO:2 in 2 sites), linker SEQ ID NO: 3, IgG2-Fc (protein, The sequence is synthesized) HAEGTFTSDLSSYLEGQAIKEFIAWLVKGRGGGGAGGGGVECPPCPAPPVAGPSVFLFPPKPKDTLMISRTPEVTCVVVDVSHEDPEVQFNWYVDGVEVHNAKTKPREEQFNSTFRVVSVLTVVHQDWLNGKEYKCKVSNKGLPAPIEKTISKTKGQPREPQVYTLPPSREEMTKNQVSLTCLVKGFYPSDIAVEWESNGQPENNYKTTPPMLDSDGSFFLYSKLTVDKSRWQQGNVFSCSVMHEALHNHYTQKSLSLSPGK | 92% |
